One test concerns the target T1, CRF1R receptor (UniProt P34998 24-415, limits assumed).
T1 sequence (looked up): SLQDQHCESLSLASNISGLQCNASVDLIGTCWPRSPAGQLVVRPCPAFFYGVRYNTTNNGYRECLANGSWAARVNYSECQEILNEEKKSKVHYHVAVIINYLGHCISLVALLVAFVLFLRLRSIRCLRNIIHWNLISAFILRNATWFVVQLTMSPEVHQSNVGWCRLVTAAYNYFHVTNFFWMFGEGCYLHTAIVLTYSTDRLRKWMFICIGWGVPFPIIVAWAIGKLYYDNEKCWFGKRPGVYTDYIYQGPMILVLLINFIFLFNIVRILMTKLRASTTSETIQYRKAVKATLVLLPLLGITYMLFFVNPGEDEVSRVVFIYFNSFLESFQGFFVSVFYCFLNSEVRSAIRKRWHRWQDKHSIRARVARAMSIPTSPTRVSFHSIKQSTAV
Briefly: cell-based or functional assay.

The target of test [1] is human corticotropin-releasing factor 2a (CRF2a receptor) (human), Q13324. The test is described as follows: cell-based or functional assay.

*1 amine or outer side, *2 acyl side, *3 side chain or, on linkers, in order; H or OH if unused. Where no end group is shown, it is not given here. Side-chain parts run from the residue outwards. [ ]: non-standard residue; d: D form. The star is where a group is joined. C18 diacid = O=C(O)CCCCCCCCCCCCCCCCC(=O)*; C16 diacid = O=C(O)CCCCCCCCCCCCCCC(=O)*; γGlu = O=C(O)[C@H](CCC(=O)[*:2])N[*:1]; NMeI = CC[C@H](C)[C@H](NC)C(=O)O; Ac5c = NC1(C(=O)O)CCCC1; Api = NC1(C(=O)O)CCNCC1; Ac3c = NC1(C(=O)O)CC1; Aib = CC(C)(N)C(=O)O

human corticotropin-releasing factor 2a (CRF2a receptor) (human), Q13324, sequence (Q13324 20-411): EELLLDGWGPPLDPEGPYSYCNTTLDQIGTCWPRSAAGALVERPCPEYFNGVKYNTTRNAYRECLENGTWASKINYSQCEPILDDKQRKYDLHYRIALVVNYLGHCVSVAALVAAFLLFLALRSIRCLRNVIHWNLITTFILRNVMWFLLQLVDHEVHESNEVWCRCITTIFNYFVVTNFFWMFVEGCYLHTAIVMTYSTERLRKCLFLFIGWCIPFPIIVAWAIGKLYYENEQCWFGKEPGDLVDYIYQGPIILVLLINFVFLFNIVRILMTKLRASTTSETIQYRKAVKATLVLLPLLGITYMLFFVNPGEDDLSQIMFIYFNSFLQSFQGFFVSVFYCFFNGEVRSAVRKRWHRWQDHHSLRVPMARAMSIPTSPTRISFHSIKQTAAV

B1: SEQ ID NO 61 (peptide)
peptide: Ac-IVLSLD[dV]PIKLK([γGlu-C16 diacid])KILLEQEKQKKQREQAETN[Ac3c]QILAQV-NH2
SMILES: CC[C@H](C)[C@H](NC(C)=O)C(=O)N[C@H](C(=O)N[C@@H](CC(C)C)C(=O)N[C@@H](CO)C(=O)N[C@@H](CC(C)C)C(=O)N[C@@H](CC(=O)O)C(=O)N[C@@H](C(=O)N1CCC[C@H]1C(=O)N[C@H](C(=O)N[C@@H](CCCCN)C(=O)N[C@@H](CC(C)C)C(=O)N[C@@H](CCCCNC(=O)CC[C@H](NC(=O)CCCCCCCCCCCCCCC(=O)O)C(=O)O)C(=O)N[C@@H](CCCCN)C(=O)N[C@H](C(=O)N[C@@H](CC(C)C)C(=O)N[C@@H](CC(C)C)C(=O)N[C@@H](CCC(=O)O)C(=O)N[C@@H](CCC(N)=O)C(=O)N[C@@H](CCC(=O)O)C(=O)N[C@@H](CCCCN)C(=O)N[C@@H](CCC(N)=O)C(=O)N[C@@H](CCCCN)C(=O)N[C@@H](CCCCN)C(=O)N[C@@H](CCC(N)=O)C(=O)N[C@@H](CCCNC(=N)N)C(=O)N[C@@H](CCC(=O)O)C(=O)N[C@@H](CCC(N)=O)C(=O)N[C@@H](C)C(=O)N[C@@H](CCC(=O)O)C(=O)N[C@H](C(=O)N[C@@H](CC(N)=O)C(=O)NC1(C(=O)N[C@@H](CCC(N)=O)C(=O)N[C@H](C(=O)N[C@@H](CC(C)C)C(=O)N[C@@H](C)C(=O)N[C@@H](CCC(N)=O)C(=O)N[C@H](C(N)=O)C(C)C)[C@@H](C)CC)CC1)[C@@H](C)O)[C@@H](C)CC)[C@@H](C)CC)C(C)C)C(C)C
B1: the “Emax (% I)” value with CRF1R receptor came to 3%. This molecule also yielded an EC50 [nM] (cAMP) in test [1] of 0.36 nM.

B2: SEQ ID NO 75 (peptide)
peptide: [NMeI]VLSLD[dV]PIKLK([γGlu-C16 diacid])KILLEQEKQK[Aib]QREQAETN[Aib]QILAQV-NH2
modifications: N-terminus assumed
SMILES: CC[C@H](C)[C@H](NC)C(=O)N[C@H](C(=O)N[C@@H](CC(C)C)C(=O)N[C@@H](CO)C(=O)N[C@@H](CC(C)C)C(=O)N[C@@H](CC(=O)O)C(=O)N[C@@H](C(=O)N1CCC[C@H]1C(=O)N[C@H](C(=O)N[C@@H](CCCCN)C(=O)N[C@@H](CC(C)C)C(=O)N[C@@H](CCCCNC(=O)CC[C@H](NC(=O)CCCCCCCCCCCCCCC(=O)O)C(=O)O)C(=O)N[C@@H](CCCCN)C(=O)N[C@H](C(=O)N[C@@H](CC(C)C)C(=O)N[C@@H](CC(C)C)C(=O)N[C@@H](CCC(=O)O)C(=O)N[C@@H](CCC(N)=O)C(=O)N[C@@H](CCC(=O)O)C(=O)N[C@@H](CCCCN)C(=O)N[C@@H](CCC(N)=O)C(=O)N[C@@H](CCCCN)C(=O)NC(C)(C)C(=O)N[C@@H](CCC(N)=O)C(=O)N[C@@H](CCCNC(=N)N)C(=O)N[C@@H](CCC(=O)O)C(=O)N[C@@H](CCC(N)=O)C(=O)N[C@@H](C)C(=O)N[C@@H](CCC(=O)O)C(=O)N[C@H](C(=O)N[C@@H](CC(N)=O)C(=O)NC(C)(C)C(=O)N[C@@H](CCC(N)=O)C(=O)N[C@H](C(=O)N[C@@H](CC(C)C)C(=O)N[C@@H](C)C(=O)N[C@@H](CCC(N)=O)C(=O)N[C@H](C(N)=O)C(C)C)[C@@H](C)CC)[C@@H](C)O)[C@@H](C)CC)[C@@H](C)CC)C(C)C)C(C)C
B2: the “Emax (% I)” value in the test with CRF1R receptor turned out to be 3%. The same molecule yielded an EC50 [nM] (cAMP) in test [1] of 0.19 nM.

B3: SEQ ID NO 74 (peptide)
peptide: [NMeI]VLSLD[dV]PIKLK([γGlu-C16 diacid])KILLEQEKQKAQREQAETN[Aib]QILAQV-NH2
modifications: N-terminus assumed
SMILES: CC[C@H](C)[C@H](NC)C(=O)N[C@H](C(=O)N[C@@H](CC(C)C)C(=O)N[C@@H](CO)C(=O)N[C@@H](CC(C)C)C(=O)N[C@@H](CC(=O)O)C(=O)N[C@@H](C(=O)N1CCC[C@H]1C(=O)N[C@H](C(=O)N[C@@H](CCCCN)C(=O)N[C@@H](CC(C)C)C(=O)N[C@@H](CCCCNC(=O)CC[C@H](NC(=O)CCCCCCCCCCCCCCC(=O)O)C(=O)O)C(=O)N[C@@H](CCCCN)C(=O)N[C@H](C(=O)N[C@@H](CC(C)C)C(=O)N[C@@H](CC(C)C)C(=O)N[C@@H](CCC(=O)O)C(=O)N[C@@H](CCC(N)=O)C(=O)N[C@@H](CCC(=O)O)C(=O)N[C@@H](CCCCN)C(=O)N[C@@H](CCC(N)=O)C(=O)N[C@@H](CCCCN)C(=O)N[C@@H](C)C(=O)N[C@@H](CCC(N)=O)C(=O)N[C@@H](CCCNC(=N)N)C(=O)N[C@@H](CCC(=O)O)C(=O)N[C@@H](CCC(N)=O)C(=O)N[C@@H](C)C(=O)N[C@@H](CCC(=O)O)C(=O)N[C@H](C(=O)N[C@@H](CC(N)=O)C(=O)NC(C)(C)C(=O)N[C@@H](CCC(N)=O)C(=O)N[C@H](C(=O)N[C@@H](CC(C)C)C(=O)N[C@@H](C)C(=O)N[C@@H](CCC(N)=O)C(=O)N[C@H](C(N)=O)C(C)C)[C@@H](C)CC)[C@@H](C)O)[C@@H](C)CC)[C@@H](C)CC)C(C)C)C(C)C
Turning to B3, the “Emax (% I)” value with CRF1R receptor worked out at 7%. In addition, the EC50 [nM] (cAMP) in test [1] came to 0.15 nM.

B4: SEQ ID NO 136 (peptide)
peptide: Ac-IVLSLD[dV]PIKLK([γGlu-C18 diacid])KILLEQEKQKKQREQAETN[Ac3c]QILAQV-NH2
SMILES: CC[C@H](C)[C@H](NC(C)=O)C(=O)N[C@H](C(=O)N[C@@H](CC(C)C)C(=O)N[C@@H](CO)C(=O)N[C@@H](CC(C)C)C(=O)N[C@@H](CC(=O)O)C(=O)N[C@@H](C(=O)N1CCC[C@H]1C(=O)N[C@H](C(=O)N[C@@H](CCCCN)C(=O)N[C@@H](CC(C)C)C(=O)N[C@@H](CCCCNC(=O)CC[C@H](NC(=O)CCCCCCCCCCCCCCCCC(=O)O)C(=O)O)C(=O)N[C@@H](CCCCN)C(=O)N[C@H](C(=O)N[C@@H](CC(C)C)C(=O)N[C@@H](CC(C)C)C(=O)N[C@@H](CCC(=O)O)C(=O)N[C@@H](CCC(N)=O)C(=O)N[C@@H](CCC(=O)O)C(=O)N[C@@H](CCCCN)C(=O)N[C@@H](CCC(N)=O)C(=O)N[C@@H](CCCCN)C(=O)N[C@@H](CCCCN)C(=O)N[C@@H](CCC(N)=O)C(=O)N[C@@H](CCCNC(=N)N)C(=O)N[C@@H](CCC(=O)O)C(=O)N[C@@H](CCC(N)=O)C(=O)N[C@@H](C)C(=O)N[C@@H](CCC(=O)O)C(=O)N[C@H](C(=O)N[C@@H](CC(N)=O)C(=O)NC1(C(=O)N[C@@H](CCC(N)=O)C(=O)N[C@H](C(=O)N[C@@H](CC(C)C)C(=O)N[C@@H](C)C(=O)N[C@@H](CCC(N)=O)C(=O)N[C@H](C(N)=O)C(C)C)[C@@H](C)CC)CC1)[C@@H](C)O)[C@@H](C)CC)[C@@H](C)CC)C(C)C)C(C)C
B4: the “Emax (% I)” value with CRF1R receptor was 5%. Also, in test [1], the EC50 [nM] (cAMP) worked out at 0.16 nM.

B5: SEQ ID NO 152 (peptide)
peptide: Ac-IVLSLD[dV]PIKLK([γGlu-C16 diacid])KILLEQEKQKAQREQAETN[Api]QILAQV-NH2
SMILES: CC[C@H](C)[C@H](NC(C)=O)C(=O)N[C@H](C(=O)N[C@@H](CC(C)C)C(=O)N[C@@H](CO)C(=O)N[C@@H](CC(C)C)C(=O)N[C@@H](CC(=O)O)C(=O)N[C@@H](C(=O)N1CCC[C@H]1C(=O)N[C@H](C(=O)N[C@@H](CCCCN)C(=O)N[C@@H](CC(C)C)C(=O)N[C@@H](CCCCNC(=O)CC[C@H](NC(=O)CCCCCCCCCCCCCCC(=O)O)C(=O)O)C(=O)N[C@@H](CCCCN)C(=O)N[C@H](C(=O)N[C@@H](CC(C)C)C(=O)N[C@@H](CC(C)C)C(=O)N[C@@H](CCC(=O)O)C(=O)N[C@@H](CCC(N)=O)C(=O)N[C@@H](CCC(=O)O)C(=O)N[C@@H](CCCCN)C(=O)N[C@@H](CCC(N)=O)C(=O)N[C@@H](CCCCN)C(=O)N[C@@H](C)C(=O)N[C@@H](CCC(N)=O)C(=O)N[C@@H](CCCNC(=N)N)C(=O)N[C@@H](CCC(=O)O)C(=O)N[C@@H](CCC(N)=O)C(=O)N[C@@H](C)C(=O)N[C@@H](CCC(=O)O)C(=O)N[C@H](C(=O)N[C@@H](CC(N)=O)C(=O)NC1(C(=O)N[C@@H](CCC(N)=O)C(=O)N[C@H](C(=O)N[C@@H](CC(C)C)C(=O)N[C@@H](C)C(=O)N[C@@H](CCC(N)=O)C(=O)N[C@H](C(N)=O)C(C)C)[C@@H](C)CC)CCNCC1)[C@@H](C)O)[C@@H](C)CC)[C@@H](C)CC)C(C)C)C(C)C
As for B5, in the test with CRF1R receptor, the “Emax (% I)” value was 25%. In test [1], this molecule displayed an EC50 [nM] (cAMP) of 0.51 nM.

B6: SEQ ID NO 135 (peptide)
peptide: Ac-IVLSLD[dV]PIKLK([γGlu-C18 diacid])KILLEQEKQKKQREQAETN[Ac5c]QILAQV-NH2
SMILES: CC[C@H](C)[C@H](NC(C)=O)C(=O)N[C@H](C(=O)N[C@@H](CC(C)C)C(=O)N[C@@H](CO)C(=O)N[C@@H](CC(C)C)C(=O)N[C@@H](CC(=O)O)C(=O)N[C@@H](C(=O)N1CCC[C@H]1C(=O)N[C@H](C(=O)N[C@@H](CCCCN)C(=O)N[C@@H](CC(C)C)C(=O)N[C@@H](CCCCNC(=O)CC[C@H](NC(=O)CCCCCCCCCCCCCCCCC(=O)O)C(=O)O)C(=O)N[C@@H](CCCCN)C(=O)N[C@H](C(=O)N[C@@H](CC(C)C)C(=O)N[C@@H](CC(C)C)C(=O)N[C@@H](CCC(=O)O)C(=O)N[C@@H](CCC(N)=O)C(=O)N[C@@H](CCC(=O)O)C(=O)N[C@@H](CCCCN)C(=O)N[C@@H](CCC(N)=O)C(=O)N[C@@H](CCCCN)C(=O)N[C@@H](CCCCN)C(=O)N[C@@H](CCC(N)=O)C(=O)N[C@@H](CCCNC(=N)N)C(=O)N[C@@H](CCC(=O)O)C(=O)N[C@@H](CCC(N)=O)C(=O)N[C@@H](C)C(=O)N[C@@H](CCC(=O)O)C(=O)N[C@H](C(=O)N[C@@H](CC(N)=O)C(=O)NC1(C(=O)N[C@@H](CCC(N)=O)C(=O)N[C@H](C(=O)N[C@@H](CC(C)C)C(=O)N[C@@H](C)C(=O)N[C@@H](CCC(N)=O)C(=O)N[C@H](C(N)=O)C(C)C)[C@@H](C)CC)CCCC1)[C@@H](C)O)[C@@H](C)CC)[C@@H](C)CC)C(C)C)C(C)C
Consider B6, for which the “Emax (% I)” value in the test with CRF1R receptor was 15%. Besides, the EC50 [nM] (cAMP) in test [1] turned out to be 0.19 nM.

Values taken from patent publication US20260001928A1 (CORTERIA PHARMACEUTICALS, priority 2022, published 2026).
